Experimental data published in patent US20220389111A1 (SHANGHAI EPIMAB BIOTHERAPEUTICS, published 2022).

Key:
[1] = biological target: T1, mouse CD39 on CHO-K1 cells (mouse, UniProt P55772 1-510); test: FACS on CHO-K1-mouse CD39 cells
T1 construct: whole, on cells; also called CHOK1-muCD39
T1 sequence (looked up): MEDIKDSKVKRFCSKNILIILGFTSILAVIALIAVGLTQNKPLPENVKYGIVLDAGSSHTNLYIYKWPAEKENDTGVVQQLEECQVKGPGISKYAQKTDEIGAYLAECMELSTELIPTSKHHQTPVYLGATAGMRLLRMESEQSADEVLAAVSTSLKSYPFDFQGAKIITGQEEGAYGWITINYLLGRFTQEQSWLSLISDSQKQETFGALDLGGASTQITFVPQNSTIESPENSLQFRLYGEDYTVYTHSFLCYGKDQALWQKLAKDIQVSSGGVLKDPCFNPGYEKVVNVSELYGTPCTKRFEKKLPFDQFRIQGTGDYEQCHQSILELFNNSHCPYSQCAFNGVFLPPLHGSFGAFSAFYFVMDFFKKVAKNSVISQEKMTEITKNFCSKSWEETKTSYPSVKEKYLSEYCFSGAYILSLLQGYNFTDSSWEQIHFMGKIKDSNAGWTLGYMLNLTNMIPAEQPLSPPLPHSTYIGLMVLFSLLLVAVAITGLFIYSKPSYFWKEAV
Protocol: The ability of the purified antibodies to bind to cell membrane human CD39, cynomolgus monkey CD39, or mouse CD39 was determined by FACS analysis. CHO-K1 cells stably transfected to overexpress human CD39, cynomolgus monkey CD39, or mouse CD39 (CHO-K1-huCD39 cells, CHO-K1-cyCD39 cells, and CHOK1-muCD39 cells) were generated for use in this assay. Briefly, SK-MEL-28 melanoma cells (ATCC) or CD39 overexpressing stable CHO cell lines were resuspended in PBS containing 2% FBS (FACS buffer) and seeded at 1-5×10⁵ cells/well into U-bottomed plates. Anti-CD39 mAbs or isotype control antibodies diluted in FACS buffer were added to the wells and incubated for 1 hour at 4° C. After washing with FACS buffer, 1:1000 diluted Fluorescence-labeled secondary antibody (Life Technologies/ThermoFisher Scientific) were added and incubated for 30 min. at 4° C. Unbound secondary mAb was removed by washing with FACS buffer three times, and the samples were then read on a FACS instrument. The data were processed by GraphPad software.

[2] = biological target: T2, mouse CD39 protein (recombinant) (mouse, UniProt P55772 38-478, limits assumed); test: ELISA on coated mouse CD39 protein
T2 construct: also called muCD39; recombinant purified mouse CD39 protein
T2 sequence (looked up): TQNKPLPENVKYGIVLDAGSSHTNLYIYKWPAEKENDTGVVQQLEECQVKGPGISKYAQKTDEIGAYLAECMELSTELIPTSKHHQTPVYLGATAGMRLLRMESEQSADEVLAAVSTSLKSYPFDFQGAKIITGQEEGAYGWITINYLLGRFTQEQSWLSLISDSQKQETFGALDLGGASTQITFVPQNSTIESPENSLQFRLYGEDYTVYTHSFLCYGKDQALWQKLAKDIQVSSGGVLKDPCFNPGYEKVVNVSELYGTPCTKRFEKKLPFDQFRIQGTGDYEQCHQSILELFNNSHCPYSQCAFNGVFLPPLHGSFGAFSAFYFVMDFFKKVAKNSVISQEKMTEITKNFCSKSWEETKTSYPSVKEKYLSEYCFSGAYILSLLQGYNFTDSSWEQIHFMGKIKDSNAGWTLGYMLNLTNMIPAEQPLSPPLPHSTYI
Protocol: To determine if anti-CD39 mAbs bind to human CD39, ELISA plates were incubated overnight at 4° C. with human CD39 protein or mouse CD39 protein diluted in PBS, pH7.4 buffer at 1 μg/ml. Plates were washed four times in washing buffer (PBS containing 0.05% Tween 20), and blocked for 1 hour at 37° C. with 200 μl per well blocking buffer (1% BSA in PBS containing 0.05% Tween 20). After blocking buffer was removed, hybridoma supernatant or diluted purified Abs were added to the wells at 100 μl per well and incubated at 37° C. for 1 hour. The wells were washed four times with washing buffer, and anti-mouse HRP (for mouse anti-human CD39 Ab characterization) or anti-rat HRP (for rat anti-mouse CD39 Ab characterization) (Sigma) were 1:5000 diluted and added to the wells at 100 μl per well. The plates were incubated for 1 hour at 37° C. and washed four times in washing buffer. 100 μl of tetramethylbenzidine (TMB) chromogenic solution were added per well. Following color development, the reaction was stopped with 1N HCl, and absorbance at 450 nm was measured. The data were proceeded by GraphPad software.

muCD39-ECD-His = biological target: T3, muCD39-ECD-His (mouse, UniProt P55772 38-477); test: SPR (Biacore T200), antibody captured, antigen in solution
T3 construct: also called C-terminally hexahistidine-tagged murine CD39 extracellular domain
T3 chain: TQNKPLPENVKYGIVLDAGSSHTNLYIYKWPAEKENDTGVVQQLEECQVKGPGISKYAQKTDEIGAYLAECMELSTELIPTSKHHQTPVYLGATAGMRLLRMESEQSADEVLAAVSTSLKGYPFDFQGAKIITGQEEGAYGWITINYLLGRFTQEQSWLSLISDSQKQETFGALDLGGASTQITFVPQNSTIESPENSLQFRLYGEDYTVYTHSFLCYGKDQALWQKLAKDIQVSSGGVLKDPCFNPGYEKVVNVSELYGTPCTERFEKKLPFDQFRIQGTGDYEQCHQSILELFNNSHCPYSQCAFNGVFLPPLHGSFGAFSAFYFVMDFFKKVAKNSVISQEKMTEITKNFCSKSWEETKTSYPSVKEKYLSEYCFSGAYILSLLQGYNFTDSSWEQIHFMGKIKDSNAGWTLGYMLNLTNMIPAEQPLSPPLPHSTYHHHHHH
Protocol: The binding kinetics of purified antibodies was determined by surface plasmon resonance-based measurements using a Biacore T200 instrument (GE Healthcare). Briefly, goat anti-mouse IgG Fc polyclonal antibody (Genway) was directly immobilized across a biosensor chip, and antibody samples were injected over reaction matrices at a flow rate of 5 μl/min. The association and dissociation rate constants, kₒₙ (M⁻¹s⁻¹) and koff(s⁻¹), respectively, were determined by making kinetic binding measurements of anti-CD39 antibody capture at five different concentrations of a recombinant human or mouse CD39 target protein (huCD39-ECD-His or muCD39-ECD-His). The equilibrium dissociation constant KD (M) of the reaction between antibodies and related target proteins was then calculated from the kinetic rate constants using the formula: KD=koff/kₒₙ. Binding affinities for murine anti-human CD39 antibodies mAb635 and mAb638 are shown in Table 9; binding affinity for rat anti-mouse CD39 antibody mAb605 is shown in Table 10.

- EC50 [1]: 2.07 nM
- EC50 [2]: 0.09 nM
- Kd (muCD39-ECD-His): 0.389 nM
- koff (muCD39-ECD-His): 0.000109 s⁻¹
B1: mAb605 (antibody, V domains shown)
VH: EVQLVESGGGLVQPGRSLKLSCAASGFTFSDNYLAWVRQAPEKGLEWVASISFEGISTYYGDSVKGRFTISKDNARRTLYLQMNSLRSEDTATYYCARRSYGSRAMDAWGQGTSVTVSS
VL: DVVMTQTPVSLPVGLGGQASISCRSSQSLVHSNGNTYLSWYLKRPGQSPQLLIYRVSSRFSGVPDRFSGSGSGTDFTLKISKVVPGDLGHYYCLQTTQYPYTFGAGTKLELK
notes: rat anti-mouse CD39 hybridoma mAb, IgG2a, κ
